# Test results from the supplement of paper PMC9170038.
# Test system: MS2 coat protein
# Assay: apparent KD of MS2 coat protein; designed switch direction (-1 OFF switch, 1 ON switch): 1; higher = weaker reporter binding
# Procedure, shortened: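 Designed RNA switches were transcribed on Illumina chips by stalled E. coli RNA polymerase and titrated with SNAP-549-labelled MS2 coat protein from 0.7 or 1.5 nM, doubling to 3 µM. Step length ran from 0.8–1.5 h at the lowest concentration to 10–20 min at the highest. The apparent KD is the median over clusters for each design, from curve-fitted normalised cluster fluorescence.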
# [1] = input ligand: microRNA oligo, concentration not stated
# [2] = Eterna round: R95, input ligand: microRNA oligo, concentration not stated
# [3] = Eterna round: R95, input ligand: FMN 200 uM
# [4] = Eterna round: R95, input ligand: none
Sequence,apparent KD of MS2 coat protein (input ligand: FMN 200 uM),apparent KD of MS2 coat protein [1],apparent KD of MS2 coat protein (input ligand: none),apparent KD of MS2 coat protein [2],apparent KD of MS2 coat protein [3],apparent KD of MS2 coat protein [4]
"AUAUGAGGAGCAGGAUAUGCGAAGAAGAAAGAAGUAGAAGGGCUCAUGGGACGACAUGAGGAUCACCCAUGUACUACCCGAUGA [AK SSNG1-V2-8] (Eterna round: R96, puzzle: Same State NG 1)",49.8 nM,66.7 nM,55.9 nM,–,–,–
"GAGCCAGUCCGAGGAUAUUCAUAUUAAACAUGAGGAUCACCCAUGUAGGCUCAGAAAGAGCCUUGGGAGAAGGCGGACUGGCUC [Xeonanisa<<1] (Eterna round: R96, puzzle: Same State NG 2)",16.7 nM,182 nM,201 nM,–,–,–
"GUGGUCAGACAUGAGGAUCACCCAUGUGGAAUAAAUAAGGUACAGGAUAUCUAAUAUAGGAUAUAAGAGAAGGGUAGGUUGGUG (Eterna round: R96, puzzle: Same State NG 3)",–,55.9 nM,–,–,–,–
"GCUCGCGGCACAGGAUAUGGGUGCCUGUACAUGAGGAUCACCCAUGUUAAGGGACGGAUUACGAACCAGAAGGGUGUGGCAAGC [Reonisma] (Eterna round: R96, puzzle: Same State NG 2)",95.5 nM,294 nM,1060 nM,–,–,–
"AAUAAACAUGAGGAUCACCCAUGUAAUAUAAAUGGAGGAUAUGCAAUUAUUAAUUAUUAAGUAGAAGGUCGAAUAA [Lollin - Epsilon 1] (Eterna round: R96, puzzle: Same State 1)",–,67.5 nM,–,–,–,–
"GGAAUAUUUACAGGAUAUGUUUUGUUAAGUCGAGCAGAAGGGUAGAUGUCUUACACGGUUUGUUACAUGAGGAUCACCCAUGUU [SameState NG1 #17] (Eterna round: R96, puzzle: Same State NG 1)",–,86.6 nM,–,–,–,–
"UCGGGCGUACUUGCUGACAUGAGGAUCACCCAUGUGAUUGGGCAGGAUAUGGUUCCGUUUCGGUUCCAGAAGGUCCUCGGUGCU [salish99_SSNG3_r04_315] (Eterna round: R96, puzzle: Same State NG 3)",593 nM,230 nM,347 nM,–,–,–
"AGAUAAGUCACAGGAUAUUCCUACAUUAAUAUGGAAGAAGGGUGAGCAUGAUUCGAUACAUGAGGAUCACCCAUGUAUCCGCGA [Eternabot solution 31] (Eterna round: R96, puzzle: Same State NG 1)",–,54 nM,–,–,–,–
"AAGGGCGGAAACAACAUGAGGAUCACCCAUGUUGCCGAAAGGCAGGAUAUCCGGCGAAAGCAGAAGGAGAAGGGUCAAGAACCA [AK SSNG3-V2-42.1] (Eterna round: R96, puzzle: Same State NG 3)",39 nM,16 nM,22.5 nM,–,–,–
"AAGAAAGACGCAGGAUAUCAGCGCAAAACACGCUGAGAAGGGUGAGACAUGAGGAUCACCCAUGUAACACGGCAAAACGCCGUG [Atinanor] (Eterna round: R96, puzzle: Same State NG 1)",2190 nM,122 nM,1310 nM,–,–,–
AUCCUACAUGAGGAUCACCCAUGUGAGGCCUCAAUAGGAUAUGCGUGUGCCUUGGCGCAUGCAGAAGGAUUGAAGC [JL Aveso mod 2] (puzzle: Same State 1),–,–,–,159 nM,–,–
ACAAGCUUUUCUGCAUUGAAAGGUUGGUUACAUGAGGAUCACCCAUGUUUUUAUGAAAAUAAUGCUCCUCGUCUUAU [JR_SHM208A_Sub093] (puzzle: Sensor for hsa-mir-208a),–,–,–,19.8 nM,264 nM,252 nM
"UGAAUAGUGAUAGGAUAUACAUGAGGAAUCCUCGUAGAAGGAUCACGACAUGAGGAUCACCCAUGUAGCCGUCAGAAGACGGCA [Mat - Same State NG 1 - JL mod - D60] (Eterna round: R96, puzzle: Same State NG 1)",450 nM,345 nM,2610 nM,–,–,–
GGUCCGGCCUGAGCUGGACCGAGGCAUGUACAUGAGGAUCACCCAUGUUCAUGUGCAGGCUUUUUGCUCGUCUUGUG [JL-shm-2.06 JL mod] (puzzle: Sensor for hsa-mir-208a),–,–,–,11 nM,49.6 nM,50.6 nM
"GUGGUCAGACAUGAGGAUCACCCAUGUGGAAUAAAUAACGUACAGGAUAUUCAAUAUAGGAUAUAGAAGAAGGGUAGAUUGGUG (Eterna round: R96, puzzle: Same State NG 3)",196 nM,136 nM,195 nM,–,–,–
"UGUUGUAUUACAGGAUAUCUAGAAUUUUUAUUUAGAGAAGGGUAUUCACAUGAGGAUCACCCAUGUAUAUACGAGGAAGUUGUG [JMF's solution 30] (Eterna round: R96, puzzle: Same State NG 1)",–,27.9 nM,–,–,–,–

Sequence,apparent KD of MS2 coat protein (input ligand: FMN 200 uM),apparent KD of MS2 coat protein [1],apparent KD of MS2 coat protein (input ligand: none),apparent KD of MS2 coat protein [2],apparent KD of MS2 coat protein [3],apparent KD of MS2 coat protein [4]
GUAAUACAUGAGGAUCACCCAUGUCAAUGUAGUCGAGGAUAUGGGUAGCUAUGAGGCGUUCUAGAAGGCGACGAGC [Same State 1 - Mod of Vinnie Teenbexe v.3] (puzzle: Same State 1),–,–,–,151 nM,273 nM,52.2 nM
"GUGGCCCAGGCACAGGAUAUGUUUCUCGUAACAUGAGGAUCACCCAUGUGCCUAUGAGAUUGUUUGCAGAAGGGUGCACGCCACG [JL Atiinbe mod 03] (Eterna round: R96, puzzle: Same State 2)",18.3 nM,146 nM,290 nM,–,–,–
"UGAACCUUCACAGGAUAUCAUGCGAAAAUUGCGUGAGAAGGGUGAAUGUGGUGUUCAUAGUUGCACAUGAGGAUCACCCAUGUA [SameState NG1 #52] (Eterna round: R96, puzzle: Same State NG 1)",107 nM,135 nM,156 nM,–,–,–
"ACUCUCACAGUAGGAUAUGUAGGAUAUGCCUACAUGAGGAUCACCCAUGUAAACAUGGCAGAAGGAUAGAAGGACUGACAUGGG [pwkr ssNG2 2FMN + 1F5.3] (Eterna round: R96, puzzle: Same State NG 2)",274 nM,233 nM,278 nM,–,–,–
"GGGAGAGGCGCAGGAUAUGGUGAGGAUCACCCACUAGAAGGGUGCACAUGAGAAUCGAACAUGAGGAUCACCCAUGUUCUGAGC (Eterna round: R96, puzzle: Same State NG 1)",560 nM,162 nM,348 nM,–,–,–
"GCUGCAAGGGCAGGAUAUGGGUCCAAAGCGCAAGUGCGCUUUGGUACAUGAGGAUCACCCAUGUCCCAGAAGGGCCCAUGCGGC [Edenbiatar] (Eterna round: R96, puzzle: Same State NG 2)",15.5 nM,78.4 nM,123 nM,–,–,–
"GAGAGAGGGUGAGGAUAUGCAGUAAUAAUGAUAGCAGAAGGCACAGACAUGAGGAUCACCCAUGUGGGAAUAAUCCAGAGAGAG [Parity 2 - Jieux - Same State NG 1] (Eterna round: R96, puzzle: Same State NG 1)",291 nM,177 nM,305 nM,–,–,–
"GCUCGAAUCAGAACCAACAUGAGGAUCACCCAUGUAUGUUGGUAGGAUAUCGUUUCUAAGAGAAACGAGAAGGGCCGAACGAGC [SameState NG3 #5] (Eterna round: R96, puzzle: Same State NG 3)",224 nM,132 nM,212 nM,–,–,–
"CAAUAAAACACAGGAUAUACAGCCAGCCAGGCUGUAGAAGGGUGAGACAUGAGGAUCACCCAUGUACAAGUCGUAGGACUUGGG [Edlaticeen] (Eterna round: R96, puzzle: Same State NG 1)",1030 nM,47.7 nM,163 nM,–,–,–
"GCCGCGUUUCGCGCCUACAUGAGGAUCACCCAUGUUUGUAGGCAGGAUAUCGUUUGCUUUGCAGGCGAGAAGGGCUGUUGUGGC [salish99_SSNG3_R04_016] (Eterna round: R96, puzzle: Same State NG 3)",43 nM,39.1 nM,46.5 nM,–,–,–
"AAACGGCCCAACGGAGGGCCACAUGAGGAUCACCCAUGUACAUAGGAUAUCACGCCAACGAGGCGUGAGAAGGGUGAUUAAAAC [Bisomaor] (Eterna round: R96, puzzle: Same State NG 3)",28.8 nM,8.11 nM,73.5 nM,–,–,–
UUCUCUUUUUAGAGACAAGCUUUUUGAUCACAUGAGGAUCACCCAUGUCUCGUCUUAUGAUUUACUUCGUUAUUUCU [BA Sensor hsa-mir-208a - 2 - 6] (puzzle: Sensor for hsa-mir-208a),–,–,–,15.6 nM,160 nM,125 nM
"ACAUGAAAUUUAGGAUAUUUUGUACCUACAUGUGACAUGAGGAUCACCCAUGUGGUAAGUAUAAGAAAGAAGGAAAAGAUAUGU [Equivalence 8 - Jieux - Same State NG 2] (Eterna round: R96, puzzle: Same State NG 2)",61.1 nM,41.2 nM,64.9 nM,–,–,–
"GAGUGGCAGUUAGGAUAUAUAGUGAUAAUCACAAUAGAAGGAACUGACAUGAGGAUCACCCAUGUAGGACUAAUCCAGAGAGAG [Parity 40 - Jieux - Same State NG 1] (Eterna round: R96, puzzle: Same State NG 1)",56.9 nM,21.7 nM,26.8 nM,–,–,–
"AGUCCAGCCUGAGCUGGACAAAGGCAUGUACAUGAGGAUCACCCAUGUCAUGUACAAGCUUUUUGCUCGUCUUAAUA [Zipper 49 - 1] (Eterna round: R96, puzzle: Sensor for hsa-mir-208a)",211 nM,12.6 nM,178 nM,–,–,–
